In patent publication US20210047426A1 (MacroGenics, published 2021):

How the values were obtained:
[1] = target: T1, Human CD123 on the surface of leukemic cell lines (human, UniProt P26951 19-378); test: cell-based or functional assay
[2] = target: T2, Human CD123-His (soluble human IL3R-alpha) (human, UniProt P26951 19-305, limits assumed); test: BIACORE surface plasmon resonance, purified human CD123 captured and immobilized, 1:1 binding fit
T2 construct: also called interleukin 3 receptor alpha chain; not shown: His tag
T2 sequence (looked up): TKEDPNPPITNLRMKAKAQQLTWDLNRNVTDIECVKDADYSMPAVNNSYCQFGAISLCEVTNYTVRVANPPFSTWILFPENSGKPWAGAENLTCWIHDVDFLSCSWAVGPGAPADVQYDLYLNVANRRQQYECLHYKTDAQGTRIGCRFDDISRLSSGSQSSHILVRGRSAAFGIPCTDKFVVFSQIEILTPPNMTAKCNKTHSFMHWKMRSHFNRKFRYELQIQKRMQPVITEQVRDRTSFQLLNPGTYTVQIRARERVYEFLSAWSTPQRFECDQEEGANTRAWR
Text: (§1) BIACORE™ analyses measure the dissociation off-rate, kd. The binding affinity (KD) between an antibody and its target is a function of the kinetic constants for association (on rate, ka) and dissociation (off-rate, kd) according to the formula: KD=[kd]/[ka]. The BIACORE™ analysis uses surface plasmon resonance to directly measure these kinetic parameters. Recombinant human or cynomolgus monkey CD3 was directly immobilized to a support. Purified human or cynomolgus monkey CD123 was captured and immolbilized to a support. The time course of dissociation was measured and a […] of the data conducted. Binding constants and affinity were obtained using a 1:1 binding fit.

[3] = target: T2, Human CD123-His (soluble human …); test: SPR (BIAcore 3000), antigen immobilized on the chip, DART-A injected, 1:1 Langmuir fit, mean of 3 experiments
Procedure: (§2) Briefly, the carboxyl groups on the CMS sensor chip were activated with an injection of 0.2M N-ethyl-N-([…]) carbodiimide and 0.05M N-hydroxy-succinimide. Soluble CD3 or CD123 (1 μg/ml) was injected over the activated CMS surface in 10 mM sodium-acetate, pH 5.0, at flow rate 5 μL/min, followed by 1 M ethanolamine for deactivation. Binding experiments were performed in 10 mM HEPES, pH 7.4, 150 mM NaCl, 3 mM EDTA and 0.005% P20 surfactant. Regeneration of the immobilized receptor surfaces was performed by pulse injection of 10 mM glycine, pH 1.5. KD values were determined by a global fit of binding curves to the Langmuir 1:1 binding model (BIAevaluation software v4.1).
(§3) The data in Table 7 are averages of 3 independent experiments each performed in duplicates.

[4] = target: T3, Cynomolgus CD123-His (soluble cynomolgus IL3R-alpha) (cynomolgus monkey); test: as above
T3 construct: also called cynomolgus monkey CD123; monkey CD123
Procedure: as §2, §3

[5] = target: T2, Human CD123-His (soluble human …); test: bifunctional ELISA, plate coated with human CD123, detection with human CD3-biotin and streptavidin-HRP
Procedure: (§4) A MaxiSorp ELISA plate (Nunc) coated overnight with the soluble human or cynomolgus IL3R-alpha (0.5 μg/mL) in bicarbonate buffer was blocked with 0.5% BSA; 0.1% Tween-20 in PBS (PBST/BSA) for 30 minutes at room temperature. […] HRP activity was detected by conversion of tetramethylbenzidine (BioFX) as substrate for 5 min; the reaction was terminated with […] of 1% […] and the absorbance read at 450 nm.

[6] = target: T3, Cynomolgus CD123-His (soluble …); test: BIACORE surface plasmon resonance, purified cynomolgus monkey CD123 captured and immobilized, 1:1 binding fit
Text: as §1

[7] = target: T3, Cynomolgus CD123-His (soluble …); test: bifunctional ELISA, plate coated with cynomolgus monkey CD123, detection with human CD3-biotin and streptavidin-HRP
Procedure: as §4

[8] = target: T1, Human CD123 on the surface of leukemic …; test: FACS on Molm-13 cells, detection with a monoclonal antibody to the E-coil/K-coil region

B1: Sequence-Optimized CD123 × CD3 Bi-Specific Diabody Having an Albumin-Binding Domain (DART-A w/ABD) (bispecific antibody)
chain 1: QAVVTQEPSLTVSPGGTVTLTCRSSTGAVTTSNYANWVQQKPGQAPRGLIGGTNKRAPWTPARFSGSLLGGKAALTITGAQAEDEADYYCALWYSNLWVFGGGTKLTVLGGGGSGGGGEVQLVQSGAELKKPGASVKVSCKASGYTFTDYYMKWVRQAPGQGLEWIGDIIPSNGATFYNQKFKGRVTITVDKSTSTAYMELSSLRSEDTAVYYCARSHLLRASWFAYWGQGTLVTVSSGGCGGGEVAALEKEVAALEKEVAALEKEVAALEKGGGSLAEAKVLANRELDKYGVSDYYKNLIDNAKSAEGVKALIDEILAALP
chain 2: DFVMTQSPDSLAVSLGERVTMSCKSSQSLLNSGNQKNYLTWYQQKPGQPPKLLIYWASTRESGVPDRFSGSGSGTDFTLTISSLQAEDVAVYYCQNDYSYPYTFGQGTKLEIKGGGSGGGGEVQLVESGGGLVQPGGSLRLSCAASGFTFSTYAMNWVRQAPGKGLEWVGRIRSKYNNYATYYADSVKDRFTISRDDSKNSLYLQMNSLKTEDTAVYYCVRHGNFGNSYVSWFAYWGQGTLVTVSSGGCGGGKVAALKEKVAALKEKVAALKEKVAALKE
For B1, the “EC50 of redirected killing of Kasumi-3 cells (LDH release, E:T = 10:1)” value [1] was 0.01 ng/mL, the “EC50 of redirected killing of Molm13 cells (LDH release, E:T = 10:1)” value [1] was 0.18 ng/mL and the “EC50 of redirected killing of RS4-11 cells (LDH release, E:T = 10:1)” value [1] was 0.5 ng/mL. For the same binder, the “EC50 of redirected killing of TF-1 cells (LDH release, E:T = 10:1)” value [1] was 0.46 ng/mL and the “EC50 of redirected killing of THP-1 cells (LDH release, E:T = 10:1)” value [1] was 0.24 ng/mL.

B2: Sequence-Optimized CD123 × CD3 Bi-Specific Diabody (DART-A) (bispecific antibody)
chain 1: QAVVTQEPSLTVSPGGTVTLTCRSSTGAVTTSNYANWVQQKPGQAPRGLIGGTNKRAPWTPARFSGSLLGGKAALTITGAQAEDEADYYCALWYSNLWVFGGGTKLTVLGGGGSGGGGEVQLVQSGAELKKPGASVKVSCKASGYTFTDYYMKWVRQAPGQGLEWIGDIIPSNGATFYNQKFKGRVTITVDKSTSTAYMELSSLRSEDTAVYYCARSHLLRASWFAYWGQGTLVTVSSGGCGGGEVAALEKEVAALEKEVAALEKEVAALEK
chain 2: DFVMTQSPDSLAVSLGERVTMSCKSSQSLLNSGNQKNYLTWYQQKPGQPPKLLIYWASTRESGVPDRFSGSGSGTDFTLTISSLQAEDVAVYYCQNDYSYPYTFGQGTKLEIKGGGSGGGGEVQLVESGGGLVQPGGSLRLSCAASGFTFSTYAMNWVRQAPGKGLEWVGRIRSKYNNYATYYADSVKDRFTISRDDSKNSLYLQMNSLKTEDTAVYYCVRHGNFGNSYVSWFAYWGQGTLVTVSSGGCGGGKVAALKEKVAALKEKVAALKEKVAALKE
notes: Two-chain heterodimer, the chains disulfide-bonded to one another; one CD123 site and one CD3 site; 58.9 kDa
Work on B2 yielded a Kd [2] of 0.14 nM, a Kd [3] of 0.13 nM and a koff [3] of 0.00019 s⁻¹. The kon [3] was 1.6e+06 M⁻¹ s⁻¹, the Kd [4] was 0.27 nM and the koff [4] was 0.0004 s⁻¹. The kon [4] was 1.5e+06 M⁻¹ s⁻¹, the “EC50 (read off the curve)” value [5] was roughly 10 ng/mL and the Kd [6] was 0.27 nM. The “EC50 (read off the curve)” value [7] was roughly 40 ng/mL.

B3: Control Bi-Specific Diabody (Control DART) (bispecific antibody)
chain 1: DVVMTQTPFSLPVSLGDQASISCRSSQSLVHSNGNTYLRWYLQKPGQSPKVLIYKVSNRFSGVPDRFSGSGSGTDFTLKISRVEAEDLGVYFCSQSTHVPWTFGGGTKLEIKGGGSGGGGEVQLVESGGGLVQPGGSLRLSCAASGFTFNTYAMNWVRQAPGKGLEWVARIRSKYNNYATYYADSVKDRFTISRDDSKNSLYLQMNSLKTEDTAVYYCVRHGNFGNSYVSWFAYWGQGTLVTVSSGGCGGGEVAALEKEVAALEKEVAALEKEVAALEK
chain 2: QAVVTQEPSLTVSPGGTVTLTCRSSTGAVTTSNYANWVQQKPGQAPRGLIGGTNKRAPWTPARFSGSLLGGKAALTITGAQAEDEADYYCALWYSNLWVFGGGTKLTVLGGGGSGGGGEVKLDETGGGLVQPGRPMKLSCVASGFTFSDYWMNWVRQSPEKGLEWVAQIRNKPYNYETYYSDSVKGRFTISRDDSKSSVYLQMNNLRVEDMGIYYCTGSYYGMDYWGQGTSVTVSSGGCGGGKVAALKEKVAALKEKVAALKEKVAALKE
notes: Bi-specific for fluorescein (FITC) and CD3; has no CD123 arm; also called FITC × CD3 control diabody
B3: no binding [8]; no binding (tested: 1 ug/mL) [5].
